According to patent US20190177366A1 (published 2019):
Like-named read-outs stand apart in the source and are kept apart here. Bridge positions count the residues as written; N and C are the ends. Square brackets hold non-standard residues; d marks the D form. * marks the point of attachment. 5FAM = O=C1OC2(c3ccc(O)cc3Oc3cc(O)ccc32)c2ccc(C(=O)*)cc21; Ach = 2-aminocyclohexane-1-carboxylic acid; hArg = N=C(N)NCCCC[C@H](N)C(=O)O; Dap = NC[C@H](N)C(=O)O; Pentanoyl = CCCCC(=O)*

Tests used:
[1] = target: T1, human PCSK9 (proprotein convertase subtilisin/kexin type 9), His-tagged, full-length (human, UniProt A8T644 31-152; Q8NBP7 153-692, limits assumed); assay: TR-FRET competition vs EGF(A)-Fc on His-PCSK9
T1 construct: The secreted protein is the prodomain plus the catalytic/Cys-rich part (N-terminus S153) after autocleavage; also called His-PCSK9; NARC-1

[2] = target: T1, human PCSK9 (proprotein convertase …); assay: TR-FRET competition vs EGF(A)-Fc on His-PCSK9; remark: listed apart in the source
[3] = target: T1, human PCSK9 (proprotein convertase …); assay: SPR, SensiQ Pioneer FE, amine-coupled protein, OneStep gradient injection (Method 3)
[4] = target: T1, human PCSK9 (proprotein convertase …); assay: SPR, Biacore T100, His-tagged protein captured on NTA chip (Method 1)
[5] = target: T1, human PCSK9 (proprotein convertase …); assay: TR-FRET competition vs EGF(A)-Fc on His-PCSK9; remark: listed apart in the source
[6] = target: T2, PCSK9Δhelix (human, UniProt Q8NBP7 31-152); assay: TR-FRET competition, Ab20 as competitor
T2 construct: domain: prodomain; Construct M1-Q692 with engineered TEV site, cut with TEV; His-tagged (tag not written as a part); also called His-PCSK9Δhelix; open groove PCSK9Δhelix

[7] = target: T1, human PCSK9 (proprotein convertase …); assay: SPR, Biacore T100, NTA capture, single cycle kinetics (Method 2)

T1 sequence (A8T644 31-152 limits assumed, chain 1 of 2): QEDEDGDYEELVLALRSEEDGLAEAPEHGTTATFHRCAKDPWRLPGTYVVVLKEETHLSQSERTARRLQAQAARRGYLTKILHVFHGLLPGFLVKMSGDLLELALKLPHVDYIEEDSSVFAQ
T1 sequence (A8T644 other isoform, or with tags, fused parts or gaps limits assumed, chain 2 of 2): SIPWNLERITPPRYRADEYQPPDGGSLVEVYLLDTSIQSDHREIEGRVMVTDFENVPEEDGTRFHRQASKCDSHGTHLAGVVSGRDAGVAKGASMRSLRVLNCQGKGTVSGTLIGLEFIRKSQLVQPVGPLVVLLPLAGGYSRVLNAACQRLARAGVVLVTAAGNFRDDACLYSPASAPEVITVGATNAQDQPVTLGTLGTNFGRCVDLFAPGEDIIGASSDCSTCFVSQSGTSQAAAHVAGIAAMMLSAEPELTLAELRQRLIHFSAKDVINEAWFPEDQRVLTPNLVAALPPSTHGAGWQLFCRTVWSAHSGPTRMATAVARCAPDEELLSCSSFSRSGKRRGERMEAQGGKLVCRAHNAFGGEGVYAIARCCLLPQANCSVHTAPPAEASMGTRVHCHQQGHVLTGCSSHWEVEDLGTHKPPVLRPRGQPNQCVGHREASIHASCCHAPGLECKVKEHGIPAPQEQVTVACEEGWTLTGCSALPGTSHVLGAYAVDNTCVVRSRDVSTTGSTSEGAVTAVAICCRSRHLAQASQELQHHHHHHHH
T2 sequence (Q8NBP7 31-152 limits assumed, stated change not applied, form in doubt, chain 1 of 2): as the sequence (A8T644 31-152 limits assumed, chain 1 of 2) above
T2 sequence (Q8NBP7 other isoform, or with tags, fused parts or gaps mutant limits assumed, form in doubt, chain 2 of 2): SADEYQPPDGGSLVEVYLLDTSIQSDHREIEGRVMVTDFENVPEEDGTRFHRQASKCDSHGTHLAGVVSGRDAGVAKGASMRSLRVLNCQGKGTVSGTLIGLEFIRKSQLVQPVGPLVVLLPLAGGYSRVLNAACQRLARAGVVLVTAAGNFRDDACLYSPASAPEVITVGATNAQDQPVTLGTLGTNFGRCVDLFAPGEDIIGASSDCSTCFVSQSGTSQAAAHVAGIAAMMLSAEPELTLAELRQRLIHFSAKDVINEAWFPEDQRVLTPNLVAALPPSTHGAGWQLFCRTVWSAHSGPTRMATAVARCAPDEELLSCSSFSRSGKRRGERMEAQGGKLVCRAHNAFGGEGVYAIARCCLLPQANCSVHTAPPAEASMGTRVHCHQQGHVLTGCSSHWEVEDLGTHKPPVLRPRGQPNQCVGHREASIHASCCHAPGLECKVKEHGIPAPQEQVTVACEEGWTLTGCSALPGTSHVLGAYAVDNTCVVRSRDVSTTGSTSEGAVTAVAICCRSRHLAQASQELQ

Ac-TVFTSWEEYLDWVGSGKLWNL-NH2 [Compound 6]
IC50 [1]: 0.74 µM

Ac-WNLVRIGLLR-NH2 [Compound 53]
IC50 [2]: > 50 µM
Kd [3]: 223 µM

H-SGCFIPWNLQRIGLLC-NH2 (disulfide 3-16 (inferred)) [Compound 26]
Kd [4]: 29 µM

Ac-TVFTSWEEYLDWVGSGGCRLPWNLQRIGLPC-NH2 (disulfide 18-31 (inferred)) [Compound 25]
IC50 [5]: 0.781 µM

Ac-TVFTSWEEYLDWVGSGGCFLPWNLQRIGLLC-NH2 (disulfide 18-31 (inferred)) [Compound 38]
IC50 [5]: 0.471 µM

B1: Compound 28 (peptide)
peptide: SGDLMPWNLVRIGLLR
notes: Printed without N-terminal cap and without C-terminal amide
Kd [4]: 46.1 µM

Ac-TVFTSWEEYLDWVGSGCWNLGRIGSQGC-NH2 (disulfide 17-28 (inferred)) [Compound 11]
IC50 [5]: 0.34 µM

Ac-TVFTSWEEYLDWVGSGCWNLKRVGSQGC-NH2 (disulfide 17-28 (inferred)) [Compound 12]
IC50 [5]: 0.19 µM

Ac-CRLPWNLQRIGLPC-NH2 (disulfide 1-14 (inferred)) [Compound 32]
Kd [3]: 1.3 µM

B2: Compound 73 (peptide)
peptide: Ac-CRLPWNLARIGLPC-NH2
modifications: disulfide 1-14
SMILES: CC[C@H](C)[C@@H]1NC(=O)[C@H](CCCNC(=N)N)NC(=O)[C@H](C)NC(=O)[C@H](CC(C)C)NC(=O)[C@H](CC(N)=O)NC(=O)[C@H](Cc2c[nH]c3ccccc23)NC(=O)[C@@H]2CCCN2C(=O)[C@H](CC(C)C)NC(=O)[C@H](CCCNC(=N)N)NC(=O)[C@@H](NC(C)=O)CSSC[C@@H](C(N)=O)NC(=O)[C@@H]2CCCN2C(=O)[C@H](CC(C)C)NC(=O)CNC1=O
Kd [3]: 11 µM

Ac-CRL[Ach]WNLQRIGLPC-NH2 (disulfide 1-14) [Compound 82]
Kd [3]: 118 µM

Ac-ALMPWNLVRIGLLR-NH2 [Compound 45]
IC50 [2]: > 50 µM
Kd [3]: 117 µM

Ac-DLMPWNLVRIGLAR-NH2 [Compound 55]
IC50 [2]: > 50 µM
Kd [3]: 96.5 µM

Ac-TVFTSWEEYLDWVGSGCRLPWNLQRIGLPC-NH2 (disulfide 17-30 (inferred), also called Pep2-8p4; Pep2-8_K9gvpep4) [Compound 19]
Kd [4]: 0.00207 µM
IC50 [5]: 0.009 µM

B3: Compound 112 (peptide)
peptide: Pentanoyl-WNLVRIGLTR-NH2
SMILES: CCCCC(=O)N[C@@H](Cc1c[nH]c2ccccc12)C(=O)N[C@@H](CC(N)=O)C(=O)N[C@@H](CC(C)C)C(=O)N[C@H](C(=O)N[C@@H](CCCNC(=N)N)C(=O)N[C@H](C(=O)NCC(=O)N[C@@H](CC(C)C)C(=O)N[C@H](C(=O)N[C@@H](CCCNC(=N)N)C(N)=O)[C@@H](C)O)[C@@H](C)CC)C(C)C
IC50 [6]: < 10 µM

5FAM-SGSGCFIPWNLQRIGLLC-NH2 (disulfide 5-18 (inferred)) [Compound 33]
Kd [3]: 6.01 µM

Ac-TVFTSWEEYLDWVGGSGCWNLKRIGSQGC-NH2 (disulfide 18-29 (inferred)) [Compound 13]
IC50 [5]: 0.01 µM

Ac-TVFTSWEEYLDWVGSGGCWNLKRIGSQGC-NH2 (disulfide 18-29 (inferred)) [Compound 14]
IC50 [5]: 0.009 µM

Ac-CFIPWNLQRIGLLC-NH2 (disulfide 1-14 (inferred)) [Compound 31]
Kd [3]: 5.83 µM

5FAM-SGSGCRLPWNLQRIGLPC-NH2 (disulfide 5-18 (inferred)) [Compound 34]
Kd [3]: 4.47 µM

B4: Compound 96 (peptide)
peptide: Ac-FCLWNLKRIGAQCWF-NH2
modifications: disulfide 2-13
SMILES: CC[C@H](C)[C@@H]1NC(=O)[C@H](CCCNC(=N)N)NC(=O)[C@H](CCCCN)NC(=O)[C@H](CC(C)C)NC(=O)[C@H](CC(N)=O)NC(=O)[C@H](Cc2c[nH]c3ccccc23)NC(=O)[C@H](CC(C)C)NC(=O)[C@@H](NC(=O)[C@H](Cc2ccccc2)NC(C)=O)CSSC[C@@H](C(=O)N[C@@H](Cc2c[nH]c3ccccc23)C(=O)N[C@@H](Cc2ccccc2)C(N)=O)NC(=O)[C@H](CCC(N)=O)NC(=O)[C@H](C)NC(=O)CNC1=O
Kd [3]: 46.4 µM

Ac-MPWNLVRIGLLR-NH2 [Compound 51]
IC50 [2]: > 50 µM
Kd [3]: 26.2 µM

Ac-TVFTSWEEYLDWVGSGKLWNLGRV-NH2 [Compound 1]
IC50 [1]: 0.388 µM

B5: Compound 229 (peptide)
peptide: Ac-MESFPGWNLV[hArg]IGLLR-NH2
SMILES: CC[C@H](C)[C@H](NC(=O)[C@H](CCCCNC(=N)N)NC(=O)[C@@H](NC(=O)[C@H](CC(C)C)NC(=O)[C@H](CC(N)=O)NC(=O)[C@H](Cc1c[nH]c2ccccc12)NC(=O)CNC(=O)[C@@H]1CCCN1C(=O)[C@H](Cc1ccccc1)NC(=O)[C@H](CO)NC(=O)[C@H](CCC(=O)O)NC(=O)[C@H](CCSC)NC(C)=O)C(C)C)C(=O)NCC(=O)N[C@@H](CC(C)C)C(=O)N[C@@H](CC(C)C)C(=O)N[C@@H](CCCNC(=N)N)C(N)=O
fold improvement of affinity against Compound 192 [6]: > 6 fold

Ac-SPCRVGYTPC-NH2 (disulfide 3-10 (inferred)) [Compound 23]
Kd [7]: 5.74 µM

Ac-PWNLVRIGLLR-NH2 [Compound 52]
IC50 [2]: > 50 µM
Kd [3]: 17.9 µM

B6: Compound 97 (peptide)
peptide: Ac-GSGCWNL[Dap]RIGSQGC-NH2
modifications: disulfide 4-15
SMILES: CC[C@H](C)[C@@H]1NC(=O)[C@H](CCCNC(=N)N)NC(=O)[C@H](CN)NC(=O)[C@H](CC(C)C)NC(=O)[C@H](CC(N)=O)NC(=O)[C@H](Cc2c[nH]c3ccccc23)NC(=O)[C@@H](NC(=O)CNC(=O)[C@H](CO)NC(=O)CNC(C)=O)CSSC[C@@H](C(N)=O)NC(=O)CNC(=O)[C@H](CCC(N)=O)NC(=O)[C@H](CO)NC(=O)CNC1=O
notes: also called Ac-GSG-CWNL(Dpr)RIGSQGC-NH2
Kd [3]: 522 µM

Ac-LMPWNLVRIGLLR-NH2 [Compound 50]
IC50 [2]: > 50 µM
Kd [3]: 16.1 µM

Ac-TVFTSWEEYLDWVGSGKLWNLGR-NH2 [Compound 4]
IC50 [1]: 0.49 µM

Ac-TVFTSWEEYLDWVGGSGKLWNLGRV-NH2 [Compound 8]
IC50 [1]: 1.03 µM

Ac-TVFTSWEEYLDWVGSGGKLWNLGRV-NH2 [Compound 9]
IC50 [1]: 0.39 µM

Ac-TVFTSWEEYLDWVGSGKLWNLG-NH2 [Compound 5]
IC50 [1]: 0.72 µM

Ac-TVFTSWEEYLDWVGSGKLWN-NH2 [Compound 7]
IC50 [1]: 0.5 µM

Ac-TVFTSWEEYLDWVGSGDLMPWNLVRIGLLR-NH2 (also called Pep2-8p7; Pep2-8_K9gvpep7) [Compound 20]
IC50 [1]: 0.037 µM
Kd [4]: 0.00556 µM
